Data reported in patent US7981863B2, “Treatment of Parkinson's disease with PDGF” (Neuronova AB, priority 2001, dated 2011).

Key:
[1] = system: Mouse Neural Stem Cells; test: Neuronal differentiation (β-III Tubulin) of adult mouse neural stem cells; type: cell-based; details: 1 nM, 7 days
Method: Adult mouse neurosperes were dissociated with trypsin (Gibco) into single cells and transferred to poly-D-Lysine plates (BD) in the above culture medium, without growth factors, supplemented with 1% Fetal Calf Serum (Gibco). The cells were incubated over night to adhere to the plate. The medium was changed to culture medium, without growth factors, supplemented with 1 nM PDGF-AA or PDFG-BB (both from R&D Systems). The medium with new substance added every second day. The cells were incubated for a total of 7 days.
The cells were washed two times with PBS (Gibco) and fixed for 15 min RT with 4% Formaldehyde (Sigma) and permeabilized 20 min RT in 0.1% Triton X-100 (Sigma) in PBS. After fixation and permeabilization the cells were labelled with mouse monoclonal anti-β-III Tubulin (1:500 Promega). Primary antibody was visualized with anti mouse Texas-Red (1:100 Vector Laboratories). All antibodies were diluted in PBS with 0.1% Triton X-100.
The cells were washed twice with PBS (Gibco) and lysed with 200 ul lysis buffer/well. The lysis buffer contained PBS, 0.1% Triton X-100, 1 mM EDTA and 1 tab1. Protease inhibitor cocktail (Roche). The samples were run on a 4-12% Bis-Tris gel (Novex) under reduced conditions with MOPS buffer (Novex) and blotted onto a Hybond ECL nitrocellulose membrane (Amersham Biotech). Blocked in 5% ECL-Block (Amersham Biotech) in PBS+0.1% Tween 20 (Sigma). The membranes were labelled with mouse monoclonal anti-β-III Tubulin (1:5000 Promega). The primary antibody was detected using a secondary antibody anti-mouse-HRP (1:10000 Amersham Biotech) and ECL Plus+ Western Blot Detection Kit (Amersham Biotech). All antibodies were diluted in PBS with 0.1% Triton X-100, 1% ECL Block. The signal were then captured on ECL Hyper Film (Amersham Biotech)

[2] = system: Healthy Rats; test: ICV infusion in healthy rats, BrdU / NeuN labelling; type: in vivo, rat
Method: Male rats (12 hours light/dark regime; feeding and drinking ad libitum; 5 animals in standard cage) were infused (Alzet minipumps) in the left lateral ventricle with human recombinant PDGF-BB for 7 days at a daily dose of 36 ng/day (8 animals/group). Human recombinant BDNF (brain derived neurotrophic factor) was used as a positive control (Pencea V et al., J. Neurosci Sep. 1 (2001), 21(17):6706-17). Bromodeoxyuridine (BrdU) was also included in the infusion vehicle (artificial cerebrospinal fluid) to enable measurement of proliferation by quantitation of BrdU incorporation in the DNA. Animals were sacrificed at 7 (proliferation) or 28 days (neurogenesis) after start of treatment and brains were dissected and prepared for sectioning and immunohistochemistry (Pencea V et al., J. Neurosci Sep. 1 (2001), 21(17):6706-17).
Proliferation was measured by BrdU incorporation and diaminobenzidine (DAB) staining of HRP conjugated secondary antibodies (FIG. 7). Cells were counted in a phase contrast microscope. Neural phenotype was assessed by staining for neuronal marker NeuN by immunocytochemistry using a fluorescence readout. The secondary antibodies were labeled with FITC or Alexa Fluor568. In double staining analyses designed to measure neurogenesis, BrdU and NeuN were quantitated by fluorescence (above) and counting of cells was done in a confocal microscope. For further experimental details, see Pencea V et al., J. Neurosci Sep. 1 (2001), 21(17):6706-17. A number of brain regions were analysed.

B1: PDGF-BB: human recombinant PDGF-BB, platelet derived growth factor B-chain homodimer (protein)
chain: SLGSLTIAEPAMIAECKTRTEVFEISRRLIDRTNANFLVWPPCVEVQRCSGCCNNRNVQCRPTQVQLRPVQVRKIEIVRKKPIFKKATVTLEDHLACKCETVAAARPVT
number of β-III Tubulin positive cells in culture ([1]; compared to the control, FIG. 5): significantly increase the number of β-III Tubulin positive cells | levels of β-III Tubulin protein (Western blot) ([1]; compared with the control, FIG. 6): significantly increased levels of β-III Tubulin protein | neuronal differentiation of cultured mouse neural stem cells/progenitors ([1]; FIG. 5 and FIG. 6): trigger neuronal differentiation | Cell count (BrdU, proliferation) along the lateral ventricle wall ([2]; 7-day group, ICV infusion 7 days, 36 ng/day, mean of two sections, mean +/- sem): 216 +/−25 | number of proliferating cells in the subventricular zone ([2]; 28-day group): no such statistically significant effect | neurogenesis in the striatum ([2]; 28-day group, in comparison to vehicle treated animals): significantly increase neurogenesis | BrdU positive cells in the dentate gyrus, the CA1 and the alveus ([2]; 28-day group, in comparison to vehicle-treated animals): no significant effect | BrdU positive cells in the striatum ([2]; 28-day group, cells counted in 300 × 300 μm squares): 40 ± 6.8 (p < 0.01 to vehicle, ANOVA)
